Experimental data: publication PMC10397247

Legend:
[1] = target: T1, P9mS; experiment: two-hybrid library CCNG1;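 also: natural log of median RNA to DNA barcode read ratio; higher means stronger binding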
T1 chain: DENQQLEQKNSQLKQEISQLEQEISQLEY

[2] = target: T2, P8mS; experiment: two-hybrid library CCNG1;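 also: natural log of median RNA to DNA barcode read ratio; higher means stronger binding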
T2 chain: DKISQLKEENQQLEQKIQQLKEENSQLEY

[3] = target: T3, 4H346-bN; experiment: two-hybrid library CCNG1;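 also: natural log of median RNA to DNA barcode read ratio; higher means stronger binding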
T3 chain: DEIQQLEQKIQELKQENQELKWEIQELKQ

[4] = target: T4, 4H2859-bN; experiment: two-hybrid library CCNG1;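 also: natural log of median RNA to DNA barcode read ratio; higher means stronger binding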
T4 chain: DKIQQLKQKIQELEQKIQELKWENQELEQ

[5] = target: T5, 4H3364-bN; experiment: two-hybrid library CCNG1;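 also: natural log of median RNA to DNA barcode read ratio; higher means stronger binding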
T5 chain: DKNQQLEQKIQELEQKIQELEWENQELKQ

[6] = target: T6, 4H3041-bN; experiment: two-hybrid library CCNG1;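 also: natural log of median RNA to DNA barcode read ratio; higher means stronger binding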
T6 chain: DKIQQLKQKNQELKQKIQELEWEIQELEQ

[7] = target: T7, 4H3297-bN; experiment: two-hybrid library CCNG1
T7 chain: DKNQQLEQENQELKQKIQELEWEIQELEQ

[8] = target: T8, 4H3381-bN; experiment: two-hybrid library CCNG1
T8 chain: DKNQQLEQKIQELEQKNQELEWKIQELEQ

[9] = target: T9, 4H796-bN; experiment: two-hybrid library CCNG1
T9 chain: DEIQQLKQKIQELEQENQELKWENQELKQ

[10] = target: T10, 4H56-bN; experiment: two-hybrid library CCNG1
T10 chain: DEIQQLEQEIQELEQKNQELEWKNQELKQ

[11] = target: T11, 4H349-bN; experiment: two-hybrid library CCNG1
T11 chain: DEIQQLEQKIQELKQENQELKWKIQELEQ

[12] = target: T12, 4H2585-bN; experiment: two-hybrid library CCNG1
T12 chain: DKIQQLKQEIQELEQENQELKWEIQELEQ

[13] = target: T13, 4H932-bN; experiment: two-hybrid library CCNG1
T13 chain: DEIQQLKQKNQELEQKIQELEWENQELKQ

[14] = target: T14, 4H949-bN; experiment: two-hybrid library CCNG1
T14 chain: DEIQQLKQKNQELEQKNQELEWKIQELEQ

[15] = target: T15, 4H2760-bN; experiment: two-hybrid library CCNG1
T15 chain: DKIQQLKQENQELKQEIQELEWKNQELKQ

[16] = target: T16, 4H264-bN; experiment: two-hybrid library CCNG1
T16 chain: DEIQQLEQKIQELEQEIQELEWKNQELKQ

[17] = target: T17, 4H2931-bN; experiment: two-hybrid library CCNG1
T17 chain: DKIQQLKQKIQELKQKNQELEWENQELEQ

[18] = target: T18, 4H730-bN; experiment: two-hybrid library CCNG1
T18 chain: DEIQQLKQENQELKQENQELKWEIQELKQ

[19] = target: T19, 4H510-AA; experiment: two-hybrid library CCmax; details: mean of both orientations
T19 chain: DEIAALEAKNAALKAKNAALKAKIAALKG

[20] = target: T20, 4H2687-AA; experiment: two-hybrid library CCmax; details: mean of both orientations
T20 chain: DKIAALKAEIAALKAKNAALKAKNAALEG

[21] = target: T21, 4H2758-AA; experiment: two-hybrid library CCmax
T21 chain: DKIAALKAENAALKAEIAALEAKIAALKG

[22] = target: T22, 4H87-AA; experiment: two-hybrid library CCmax; details: mean of both orientations
T22 chain: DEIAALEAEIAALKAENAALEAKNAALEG

[23] = target: T23, 4H3134-AA; experiment: two-hybrid library CCmax; details: mean of both orientations
T23 chain: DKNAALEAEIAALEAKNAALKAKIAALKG

[24] = target: T24, 4H2705-AA; experiment: two-hybrid library CCmax
T24 chain: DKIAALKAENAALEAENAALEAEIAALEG

[25] = target: T25, 4H2646-AA; experiment: two-hybrid library CCmax; details: mean of both orientations
T25 chain: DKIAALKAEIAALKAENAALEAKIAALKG

[26] = target: T26, 4H3625-AA; experiment: two-hybrid library CCmax; details: mean of both orientations
T26 chain: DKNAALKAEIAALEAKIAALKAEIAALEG

[27] = target: T27, 4H2873-AA; experiment: two-hybrid library CCmax; details: mean of both orientations
T27 chain: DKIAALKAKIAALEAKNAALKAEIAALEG

[28] = target: T28, 4H775-AA; experiment: two-hybrid library CCmax; details: mean of both orientations
T28 chain: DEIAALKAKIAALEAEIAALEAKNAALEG

[29] = target: T29, 4H2512-AA; experiment: two-hybrid library CCmax
T29 chain: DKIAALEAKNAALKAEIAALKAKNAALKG

[30] = target: T30, 4H816-AA; experiment: two-hybrid library CCmax; details: mean of both orientations
T30 chain: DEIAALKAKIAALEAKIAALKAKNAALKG

[31] = target: T31, 4H2985-AA; experiment: two-hybrid library CCmax; details: mean of both orientations
T31 chain: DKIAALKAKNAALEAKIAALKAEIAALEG

[32] = target: T32, 4H3409-AA; experiment: two-hybrid library CCmax; details: mean of both orientations
T32 chain: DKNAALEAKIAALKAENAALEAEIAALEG

[33] = target: T33, 4H3940-AA; experiment: two-hybrid library CCmax; details: mean of both orientations
T33 chain: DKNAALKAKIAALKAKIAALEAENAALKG

[34] = target: T34, 4H390-AA; experiment: two-hybrid library CCmax; details: mean of both orientations
T34 chain: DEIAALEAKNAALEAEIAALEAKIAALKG

[35] = target: T35, 4H278-AA; experiment: two-hybrid library CCmax; details: mean of both orientations
T35 chain: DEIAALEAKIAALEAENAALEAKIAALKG

[36] = target: T36, P8A-bA; experiment: two-hybrid library CCNG1
T36 chain: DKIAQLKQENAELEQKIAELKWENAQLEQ

[37] = target: T37, P6A-bA; experiment: two-hybrid library CCNG1
T37 chain: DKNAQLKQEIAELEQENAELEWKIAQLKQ

[38] = target: T38, P7A-bA; experiment: two-hybrid library CCNG1
T38 chain: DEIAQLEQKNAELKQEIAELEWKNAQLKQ

[39] = target: T39, P9A-bA; experiment: two-hybrid library CCNG1
T39 chain: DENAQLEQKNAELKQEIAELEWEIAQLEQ

[40] = target: T40, P5A-bA; experiment: two-hybrid library CCNG1
T40 chain: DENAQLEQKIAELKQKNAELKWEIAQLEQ

[41] = target: T41, O15-bA; experiment: two-hybrid library CCNG1
T41 chain: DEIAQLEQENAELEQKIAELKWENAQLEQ

[42] = target: T42, 4H967-bA; experiment: two-hybrid library CCNG1
T42 chain: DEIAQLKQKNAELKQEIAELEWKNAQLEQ

Binder DKISQLKEENQQLEQKIQQLKEENSQLEY [P8mS] has an interaction score [1] of -0.61 and an interaction score [2] of -1.02.

DKIQQLKQEIQELEQENQELKWEIQELEQ [4H2585-bN] gave an interaction score [3] of 2.36, an interaction score [4] of 0.161 and an interaction score [5] of -0.855. It also gave an interaction score [6] of -0.321, an interaction score [7] of -0.64 and an interaction score [8] of -2.06. It also gave an interaction score [9] of -0.881, an interaction score [10] of -0.978 and an interaction score [11] of 1.61. It also gave an interaction score [12] of -0.804, an interaction score [13] of -1.52 and an interaction score [14] of -0.975. For the same binder, the interaction score [15] was -1.01, the interaction score [16] was -0.828 and the interaction score [17] was -0.905. For the same binder, the interaction score [18] was -0.949.

DKIAALEAKNAALKAEIAALKAKNAALKG [4H2512-AA] gave an interaction score [19] of -1.85, an interaction score [20] of -1.95 and an interaction score [21] of -0.837. For the same binder, the interaction score [22] was -0.485, the interaction score [23] was -0.978 and the interaction score [24] was -0.766. The interaction score [25] was -1.05, the interaction score [26] was -1.5 and the interaction score [27] was -1.36. The interaction score [28] was -1.11, the interaction score [29] was 0.206 and the interaction score [30] was -1.79. For the same binder, the interaction score [31] was 0.303, the interaction score [32] was 1.21 and the interaction score [33] was -1.72. The interaction score [34] was 0.0427 and the interaction score [35] was 2.22.

DENAQLEQKIAELKQKNAELKWEIAQLEQ [P5A-bA] was tested, and the interaction score [36] was 0.0376, the interaction score [37] was 2.33 and the interaction score [38] was -1.32. It also gave an interaction score [39] of -0.7 and an interaction score [40] of -1.22.

DEIAQLKQKNAELKQEIAELEWKNAQLEQ [4H967-bA] showed an interaction score [41] of 1.66 and an interaction score [42] of -0.153.
